Results taken from the nanobody polyreactivity screen of Harvey et al. (2022).

Assay: yeast display, Sf9 membrane polyspecificity reagent, FACS + sequencing; frameworks hold sequencing errors
Procedure, shortened: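 In a synthetic yeast display library (Saccharomyces cerevisiae BJ5465), nanobody expression was induced with galactose for 36–48 hours. FACS gates were set low and high (top ~1%) using anti-HA fluorescence for expression and streptavidin fluorescence for binding of the Sf9 membrane reagent. Each polyreactivity label is drawn from the gate of origin.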

Sequence | polyreactivity (PSR sort gate)
QVQLVESGGGLVQAGGILRLSCDASGLIFGPYTMGWYRQAPGKERELVAAISYGGVSTYYADSVKGRFTISRDNAKNTVYLQMNSLKPEDTAVYYCARGDSTRVIRPSAREYDYWGQGTQVTVSS | low polyreactivity
QVQLVESGGGLVQAGGSLRLSCAASGFTYGRYAMGWYRQAPGKERELVAVISWSGVSTYYADSVKGRFTISRDNAKNTVYLQMNSLKPEDTAVYYCNKRSYHYPYGYDYWGQGTQVTVSS | high polyreactivity
QVQLVESGGGLVQAGGSLRLSCAASGSIISYYAMGWYRQAPGKERELVAVINSGSTNYADSVKGRFTLSRDNSKNTVYLQMHSLNPEDTAVYYCAAYSLLYLLEQYTTAPYDYWGQGTQVTVSS | low polyreactivity
QVQLVESGGGLVQAGGSLRISCAATGIIFIGYAMGWYRQAPGKERELVAAITRSGVSTYYADSVKGRFTISRDNAKNTVYLQMNSLKPEDTAVYYCAARYFGEKYSHGFDYWGQGTQVTVSS | low polyreactivity
QVQLVESGGGLVQAGGSLRLSCAASGRIFYSYTMGWYRQAPGKERELVAGINRSVGSTYYADSVKGRFTISRDNAKNTVYLQMNSLKPEDTAVYYCAAGSRRRSYYTFSSVHGHYYWGQGTQVTVSS | high polyreactivity
QVQLVESGGGLVQAGGSLRLSCAASGSIFSYYAMGWYRQAPGKERELVAGITWSGGRTYYADSVKGRFTISRDNAKNTVYLQMNSLKPEDTAVYYCAAVQLFSRRSRYDYWGQGTQVTVSS | high polyreactivity
QVQHVESGGVLVQAGGSLRLSCAASGSIFVIYAMGWYRQAPGQEWELVAAINRGSTNYADSVKGRFTISRDNAKNTVYLQMNSLKPEDTAVYYCAAYGRYGFGRVERYDYWGLGTQVTVSS | high polyreactivity
QVQLVESGGGLVQAGGSLRLSCAASGRTFLWNAMGWYRQAPGKERELITYYADSVKWRFTISRDNAKNTVYLQMNSLKPEDTAVYYCAAEQGSSVLYDSWGQGTQVTVSS | low polyreactivity
QVQLVESGGGLVQAGGSLRLSCTASGSIFTRNTMGSYRQAPGKERELVAAISRRGGSTDYADSVKGRFTISRDNAKNTVYLQMNSLKPEDTAVYYCAADLGYEYDYWGQGTQVTVSS | high polyreactivity
QVQLVESGGGLVQAGGSLRLSCAASGGIFSGYAMGWYRQAPGKARELVAAISRRGTRTYYADSVKGRFTISRDNAKNTVDLQKNSLTPEDTAVYYCNAELDSLGTYDYWGQGTQVTVSS | high polyreactivity
QVQLVESGGGLVQAGGSLRLSCAASGLILSTYAMGWYRQAPGKERELVAAITWRSGSTYYADSVKGRFTISRDNAKNTVYLQMNSLKPEDTAVYYCNVAPTFPYNGYEYWGQGTQVTVSS | high polyreactivity
QVQLVESGGGLVQAGGSLRLSCAASGNIFLDYAMGWYRQAPGKERELVAANTSRVDDTYYADSVKGRFTISLDNAKNTVYLQMTSLKPEFTAVDYCAADYSVTLLIGGYYWFYAFDYWGQGTQVTVSS | low polyreactivity
QVQLVESGGGLVQAGGSLRLSCAASGNTFRSYVMGWYRQAPGKERELVAVITKSGGSTYYADSVKGRFTISRDNAKNTVYLQMNSLKPEDTAVYYCAADRPAYGVGYWGQGTQVTVSS | high polyreactivity
QVQLVESGAGLVQAGGSLRLSCAASGFTFDNYVMGWYRQAPGKERELVAAISKSGTSTYYADSVKGRFTISRDNAKNTVYLQMNSLKPEDTAVYYCAAALPGYGDYYYWGQGTLVTVSS | high polyreactivity
QDQLVESGGGLVQAGGSLRLSCAASGFTFRYYAMGWYRQAPGKEREFVAAITQSGGSTYYADSVKGRFTISRDNAKNTVYLQMNSLKPEDTAVYYCNTARVKYRWYNYWGQGTQVTVSS | high polyreactivity
QVQLVESGGGLVQAGGSLRLSCAASGSTFGPNTMGWYRQAPGKERELVAAINLRGGRTYYADSVKGRFTISRDNAKNTVYLQMNSLKPEDTAVYYCAARFKTTGYDYWGQGTQVTVSS | high polyreactivity

Sequence | polyreactivity (PSR sort gate)
QVQLVESGGGLVQAGGSLGLSCAASGFTFDLYAMGWYRQAPGKERALVAAISWSGGSTRYADSVKGRFTISRDYAKNTVYLQMNSLKPEDTAVYYCARQPRLYFKGKLYGYWGQGTQVTVSS | high polyreactivity
QVQLVESGGGLVQAGGSLRLSCAASGSIFYRYAMGWYRQAPGKERELVASISSGVSTNYADSVKGRFTISRDNAKNTVYLQMNSLKPEDTAVYYCAAYYRGWSSSYWYPAYNYWGQGTQVTVSS | low polyreactivity
QVQLVESGGGLVQAGGSLRLSCAASGRIFAHYAMGWYRQAPGKERELVADITDGGSTYYADSVKGRFTISRDNAKNTVYLQMNSLKPEDTAVYYVATRRGPWPSEYDSWGQGTQVTVSS | low polyreactivity
QVQLVESGGGLVQAGGSLRLSCAASGRTFSQYAMGWYRQAPGKERELVAAITKNGGRTYYADSVKGRFTISRDNAKNTVYLQMNSLKPEDTAVYYCNARGGRYAGKLDYWGQGTQVTVSS | high polyreactivity
QVQLVESGGGLVQAGGSLRLSCAASGSTFVYYDMGWYRQAPGQERELVATINGSGSRTNYADSVKGRFTISRDYAKNTVYLQMNSLKPEDTAVYYCAADYISYLVAGGYEDDYWGQVTQVTVSS | low polyreactivity
QVQLVESGGGLVQAGGSLRLSCAASGFTFRRNAMGWYRQAPGKERELVAAISRGGSSTYYADSVKGRFTISRDNAKNTVYLQMNSLKPEDTAVYYCGARIPNQQGYGYWGQVTQVTVSS | high polyreactivity
QVQLVESGGGLVQAGGSLRLSCAASGSNFRVYAMGWDRQAPGKERELVAAISSSGGITYYADSVKGRFTISRDNAKNTVYLQMNSLKPEDTAVYYCAKGTVIHVLYDYWGQGTQVTVSS | low polyreactivity
QVQLVESGGGLVQAGGSLRLSCAASGRTFSIYAMGWYRQAPGKERELVASITGRGTRTYYADSVKGRFTISRDNAKNTVYLQMNSLKPEDTAVYYCNARGKVQSSYDDDYWGQGTQVTVSS | high polyreactivity
QVQLVESGGGLVQAGGSLRVSCAASGSTFTDYDMVWYRQAPGKERELVAAITSGGSTNYADSVKGRFTISRDNAKNTVYLHMNSLKPEDTAVYYCNAERDSPTLNLDRGWEYDYWGQGTQVTVSS | low polyreactivity
QVQLVESGGGLVQAGGSLRLSCAASGLTFEYYAMGWYRQAPGKERELVAAITSTGSTNYADSVKGRFTISRDNAKNTVYLQMNSLKPEDTAVYFCNAEKPEGSTLYDYDYWGQGTQVTVSS | low polyreactivity
QVQLVESGGGLVQAGGSLRLSCAAYGSIFFGNVMGWYRQAPGKARELVAVISWSGGTTYYADSVKGRFTISRDNAKNTVYLQMNSLKPEDTAVYYCNARYLRRGDYWGQGTQVTVSS | low polyreactivity
QVQLVESGGGLVQAGGSLRLSCAASGSIFGYNAMGGYRHAPGKEREFVAAINSGGSTYYADSVKGRFTISRDNAKITVYLQLNSLKPEDTAVYYCRRRNVYSTRRYEYWGQGTQVTVSS | high polyreactivity
QVQLVESGGGLVQAGGSLRLSCAASGGSFYPYAMGWSRQAPGKERELLAAISWSGDITYYADSVKGRFTISRDNANNTVYLQMNSLKPEDTAVYYCAAGRVVDKDPSYFREGDYWGQGTQVTVSS | low polyreactivity
QVQRVESWGGLVQAGGSLRLSCAASGSIFDVYTMGWYRQAPGKERELVAAINTGGGSTYYADSVKGRFTISRDNAKNTVYFQMNSLKPEDTAVYYCAAQWWWKRPVRYEYWGQGTLVTVSS | low polyreactivity
QVQLVESGGGLVQARGSLRLSCAASGRTLTYNAMGWYRPAPGKERELVAVISSRGDTTYYADSVKGRFTISRDNAKNTVYLQRNSLKPEDTAVYFCNSALSGRRSYYYWGQGTQVTVSS | low polyreactivity
QVQLVESGGGLVQEGGSLRLSCAASGFIFFLNAMGWYRQAPGKERELVAAISSSGGRTYYADSVKGRFTISRDNAKITVYLQMNSLKTEVTAVYYCNAVTLYRSRTDGYWGQGTQVTVSS | high polyreactivity
